Literature values, collected in publication PMC7080216.

Key:
[1] = biological target: matriptase (Homo sapiens) (UniProt Q9Y5Y6)
[2] = biological target: cathepsin G (Homo sapiens) (UniProt P08311)
Sequence of UniProt P08311 (P08311 21-243): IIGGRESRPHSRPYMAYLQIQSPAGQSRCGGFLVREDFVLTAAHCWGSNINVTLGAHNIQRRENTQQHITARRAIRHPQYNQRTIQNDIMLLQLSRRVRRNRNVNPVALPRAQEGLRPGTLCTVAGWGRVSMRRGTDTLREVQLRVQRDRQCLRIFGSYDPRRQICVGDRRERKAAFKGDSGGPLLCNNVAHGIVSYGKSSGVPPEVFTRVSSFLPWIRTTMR

Sequence of UniProt Q9Y5Y6 (Q9Y5Y6 whole entry): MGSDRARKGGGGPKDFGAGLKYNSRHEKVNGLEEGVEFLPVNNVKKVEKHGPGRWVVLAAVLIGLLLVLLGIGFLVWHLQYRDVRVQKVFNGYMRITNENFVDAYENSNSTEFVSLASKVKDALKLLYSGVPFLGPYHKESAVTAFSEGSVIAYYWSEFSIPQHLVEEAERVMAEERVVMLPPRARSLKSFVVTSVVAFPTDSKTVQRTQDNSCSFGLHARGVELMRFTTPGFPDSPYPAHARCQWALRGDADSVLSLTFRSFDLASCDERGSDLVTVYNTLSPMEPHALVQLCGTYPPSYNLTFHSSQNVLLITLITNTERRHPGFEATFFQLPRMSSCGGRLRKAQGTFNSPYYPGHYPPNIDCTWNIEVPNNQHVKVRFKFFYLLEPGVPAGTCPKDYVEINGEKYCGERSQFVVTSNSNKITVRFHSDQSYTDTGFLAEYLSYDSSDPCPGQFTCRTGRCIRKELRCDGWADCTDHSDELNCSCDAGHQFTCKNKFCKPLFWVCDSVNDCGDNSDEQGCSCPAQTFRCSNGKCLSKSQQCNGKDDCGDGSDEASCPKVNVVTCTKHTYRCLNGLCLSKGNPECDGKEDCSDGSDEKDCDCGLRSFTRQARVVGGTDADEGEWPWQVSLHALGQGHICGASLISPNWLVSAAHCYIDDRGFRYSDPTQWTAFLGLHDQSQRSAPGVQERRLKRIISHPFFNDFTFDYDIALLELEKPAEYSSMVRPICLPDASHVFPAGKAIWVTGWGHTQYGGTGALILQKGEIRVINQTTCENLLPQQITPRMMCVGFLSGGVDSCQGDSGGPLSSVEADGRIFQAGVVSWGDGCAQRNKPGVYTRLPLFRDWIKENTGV

- Ki [1]: 0.001 µM
- Ki [2]: 0.57 µM
Substance: SFTI-1 (from UniProt Q4GWU5)
